Reference: patent publication US20240190987A1 (TIGATX, published 2024)

Key:
[1] = target: T1, Ab0787; assay: BLI 5-pt +indinavir
T1 construct: Fab, His-Tag, Avi-Tag; Ab0785 + HC I50M; also called LS2A R3M2; Ab787

[2] = target: T1, Ab0787; assay: BLI 1-pt +indinavir
[3] = target: T2, Ab0786; assay: BLI +indinavir
T2 construct: Fab, His-Tag, Avi-Tag; Ab0785 + HC I50M+S58N; also called LS2A R3M1 Fab; biotinylated-Ab0786

Kd [1] | Kd [2] | Kd [3] | Binder
1 nM | 5.7 nM | – | Ab0936 (antibody, V domains shown, also called LS2B R6M2) VH: EVQLVESGGGLVQPGGSLRLSCAASGFDFSSYSIHWVRQAPGKGLEWVAAISPYYGSTYYADSVKGRFTISADTSKNTAYLQMNSLRAEDTAVYYCARYYEWYKYDLYLGSLGFDYWGQGTLVTVSS VL: DIQMTQSPSSLSASVGDRVTITCRASQSVSSAVAWYQQKPGKAPKLLIYSASSLYSGVPSRFSGSRSGTDFTLTISSLQPEDFATYYCQQGGYSLITFGQGTKVEIK
– | 49 nM | – | Ab0941 (antibody, V domains shown, also called LS2B R6M7) VH: EVQLVESGGGLVQPGGSLRLSCAASGFDFSSYSIHWVRQAPGKGLEWVASISPYYGATYYADSVKGRFTISADTSKNTAYLQMNSLRAEDTAVYYCARYYEWYKYDLYLGSLGFDYWGQGTLVTVSS VL: DIQMTQSPSSLSASVGDRVTITCRASQSVSSAVAWYQQKPGKAPKLLIYSASSLYSGVPSRFSGSRSGTDFTLTISSLQPEDFATYYCQQGGYSLITFGQGTKVEIK
– | 50 nM | – | Ab0953 (antibody, V domains shown, also called LS2B R6M22) VH: EVQLVESGGGLVQPGGSLRLSCAASGFDFSSYSIHWVRQAPGKGLEWVASISPYYGSTYYADSVKGRFTISADTSKNTAYLQMNSLRAEDTAVYYCARYYEWYKYDLYLGSLGFDYWGQGTLVTVSS VL: DIQMTQSPSSLSASVGDRVTITCRASQSVSSAVAWYQQKPGKAPKLLIYSASSLYSGVPSRFSGSRSGTDFTLTISSLQPEDFATYYCQQGAYSLITFGQGTKVEIK
– | 42 nM | – | Ab0937 (antibody, V domains shown, also called LS2B R6M3) VH: EVQLVESGGGLVQPGGSLRLSCAASGFDFSSYSIHWVRQAPGKGLEWVASASPYYGSTYYADSVKGRFTISADTSKNTAYLQMNSLRAEDTAVYYCARYYEWYKYDLYLGSLGFDYWGQGTLVTVSS VL: DIQMTQSPSSLSASVGDRVTITCRASQSVSSAVAWYQQKPGKAPKLLIYSASSLYSGVPSRFSGSRSGTDFTLTISSLQPEDFATYYCQQGGYSLITFGQGTKVEIK
– | – | 79 nM | Ab1071 (Fab, V domains shown, also called LS2B R5M2 Fab) VH: EVQLVESGGGLVQPGGSLRLSCAASGFDFSSYSIHWVRQAPGKGLEWVASISPYYGSTYYADSVKGRFTISADTSKNTAYLQMNSLRAEDTAVYYCARYYEWYKYDLYAGSLGFDYWGQGTLVTVSS VL: DIQMTQSPSSLSASVGDRVTITCRASQSVSSAVAWYQQKPGKAPKLLIYSASSLYSGVPSRFSGSRSGTDFTLTISSLQPEDFATYYCQQGGYSLITFGQGTKVEIK
– | 40 nM | – | Ab0939 (antibody, V domains shown, also called LS2B R6M5) VH: EVQLVESGGGLVQPGGSLRLSCAASGFDFSSYSIHWVRQAPGKGLEWVASISAYYGSTYYADSVKGRFTISADTSKNTAYLQMNSLRAEDTAVYYCARYYEWYKYDLYLGSLGFDYWGQGTLVTVSS VL: DIQMTQSPSSLSASVGDRVTITCRASQSVSSAVAWYQQKPGKAPKLLIYSASSLYSGVPSRFSGSRSGTDFTLTISSLQPEDFATYYCQQGGYSLITFGQGTKVEIK
– | 100 nM | – | Ab0944 (antibody, V domains shown, also called LS2B R6M10) VH: EVQLVESGGGLVQPGGSLRLSCAASGFDFSSYSIHWVRQAPGKGLEWVASISPYYGSTYYADSVKGRFTISADTSKNTAYLQMNSLRAEDTAVYYCARYYEWYKYALYLGSLGFDYWGQGTLVTVSS VL: DIQMTQSPSSLSASVGDRVTITCRASQSVSSAVAWYQQKPGKAPKLLIYSASSLYSGVPSRFSGSRSGTDFTLTISSLQPEDFATYYCQQGGYSLITFGQGTKVEIK
– | 42 nM | – | Ab0958 (antibody, V domains shown, also called LS2B R6M27) VH: EVQLVESGGGLVQPGGSLRLSCAASGFDFSSYSIHWVRQAPGKGLEWVASISPYYGSTYYADSVKGRFTISADTSKNTAYLQMNSLRAEDTAVYYCARYYEWYKYDLYLGSLGFDYWGQGTLVTVSS VL: DIQMTQSPSSLSASVGDRVTITCRASQSVSSAVAWYQQKPGKAPKLLIYSASSLYSGVPSRFSGSRSGTDFTLTISSLQPEDFATYYCQQGGYSLIAFGQGTKVEIK
